Laboratory results: US20230174642A1, “AFFINITY-MATURATED ANTI-ASIC1a ANTIBODIES” (SHANGHAITECH UNIVERSITY, priority 2019, published 2023)

Assays:
[1] = biological target: T1, human ASIC1a (hASIC1a-eYFP) (Homo sapiens, UniProt P78348); assay: FACS-based binding assay, transiently transfected CHO-K1 cells (species selectivity); conditions: double positive population
T1 construct: expressed in transfected cells; host or cells: CHO-K1 (transient)
T1 sequence (P78348 1-528): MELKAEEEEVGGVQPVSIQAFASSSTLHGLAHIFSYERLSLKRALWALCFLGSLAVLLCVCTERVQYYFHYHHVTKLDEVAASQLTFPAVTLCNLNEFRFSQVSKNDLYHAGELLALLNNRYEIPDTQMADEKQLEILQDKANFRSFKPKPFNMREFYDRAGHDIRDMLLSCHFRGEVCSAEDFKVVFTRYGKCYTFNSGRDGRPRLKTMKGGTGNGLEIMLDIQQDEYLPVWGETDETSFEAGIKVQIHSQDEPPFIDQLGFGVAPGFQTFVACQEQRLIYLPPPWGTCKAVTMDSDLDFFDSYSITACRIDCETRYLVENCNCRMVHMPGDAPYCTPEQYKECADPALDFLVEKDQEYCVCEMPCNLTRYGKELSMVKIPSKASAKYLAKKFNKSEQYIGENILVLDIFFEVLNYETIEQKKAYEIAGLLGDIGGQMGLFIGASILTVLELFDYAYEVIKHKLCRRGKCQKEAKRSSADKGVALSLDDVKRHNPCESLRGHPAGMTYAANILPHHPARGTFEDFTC
Description: (§1) To investigate the species selectivity of ASC06-IgG1 affinity-matured antibodies, plasmids encoding fusion proteins of eYFP with […] homologs of ASIC1a were constructed. These plasmids included those encoding human ASIC1a (hASIC1a-eYFP), mouse ASIC1a (mASIC1a-eYFP), and rat ASIC1a (rASIC1a-eYFP). CHO-K1 cells were transiently transfected with the ASIC1a-eYFP plasmids, and a fluorescence activated cell sorting (FACS)-based binding assay was carried out to determine binding to the homologs or isoforms of ASIC1a expressed on the cell surface. An isotype control was used as a negative control for binding (NC). ASC06-IgG1 was used as a positive control. Summarily, the CHO-K1 cells expressing the ASIC1a-eYFP (green) homologs were stained with the indicated antibody (red) and subjected to FACS.

[2] = biological target: T2, mouse ASIC1a (mASIC1a-eYFP) (Mus musculus, UniProt Q6NXK8); assay: as above; conditions: double positive population
T2 construct: expressed in transfected cells; host or cells: CHO-K1 (transient)
T2 sequence (Q6NXK8 1-526): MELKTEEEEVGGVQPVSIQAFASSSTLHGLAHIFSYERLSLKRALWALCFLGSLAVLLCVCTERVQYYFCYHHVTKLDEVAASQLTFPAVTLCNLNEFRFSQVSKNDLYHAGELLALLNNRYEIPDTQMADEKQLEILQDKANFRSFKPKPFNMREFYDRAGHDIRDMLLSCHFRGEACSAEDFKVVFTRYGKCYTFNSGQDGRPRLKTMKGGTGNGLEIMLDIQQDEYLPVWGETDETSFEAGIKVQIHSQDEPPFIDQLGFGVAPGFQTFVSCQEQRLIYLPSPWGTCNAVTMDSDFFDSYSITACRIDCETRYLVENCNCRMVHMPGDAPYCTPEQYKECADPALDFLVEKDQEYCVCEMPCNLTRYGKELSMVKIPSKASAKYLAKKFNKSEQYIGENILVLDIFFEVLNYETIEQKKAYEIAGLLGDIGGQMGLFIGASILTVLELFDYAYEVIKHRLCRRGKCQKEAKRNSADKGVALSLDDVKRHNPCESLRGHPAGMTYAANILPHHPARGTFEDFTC
Description: as §1

[3] = biological target: T3, rat ASIC1a (rASIC1a-eYFP) (Rattus norvegicus, UniProt P55926); assay: as above; conditions: double positive population
T3 construct: expressed in transfected cells; host or cells: CHO-K1 (transient)
T3 sequence (P55926 1-526): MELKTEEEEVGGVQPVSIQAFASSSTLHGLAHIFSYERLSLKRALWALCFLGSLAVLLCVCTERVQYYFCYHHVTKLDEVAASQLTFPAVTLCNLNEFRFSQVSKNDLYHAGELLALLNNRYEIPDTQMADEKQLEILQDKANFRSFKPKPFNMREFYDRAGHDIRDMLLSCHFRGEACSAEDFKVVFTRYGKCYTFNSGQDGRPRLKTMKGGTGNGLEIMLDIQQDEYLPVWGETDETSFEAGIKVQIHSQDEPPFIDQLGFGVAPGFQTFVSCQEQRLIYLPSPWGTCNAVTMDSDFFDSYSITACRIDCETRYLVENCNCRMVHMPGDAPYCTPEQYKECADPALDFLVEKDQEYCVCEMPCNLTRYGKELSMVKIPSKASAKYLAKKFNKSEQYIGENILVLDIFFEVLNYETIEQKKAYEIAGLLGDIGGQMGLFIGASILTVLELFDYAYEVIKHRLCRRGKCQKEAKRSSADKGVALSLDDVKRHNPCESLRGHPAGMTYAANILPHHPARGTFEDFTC
Description: as §1

[4] = biological target: T4, hASIC1a on CHO-K1 cells stably expressing hASIC1a (human, UniProt P78348 1-528); assay: cell-based or functional assay
T4 sequence (looked up): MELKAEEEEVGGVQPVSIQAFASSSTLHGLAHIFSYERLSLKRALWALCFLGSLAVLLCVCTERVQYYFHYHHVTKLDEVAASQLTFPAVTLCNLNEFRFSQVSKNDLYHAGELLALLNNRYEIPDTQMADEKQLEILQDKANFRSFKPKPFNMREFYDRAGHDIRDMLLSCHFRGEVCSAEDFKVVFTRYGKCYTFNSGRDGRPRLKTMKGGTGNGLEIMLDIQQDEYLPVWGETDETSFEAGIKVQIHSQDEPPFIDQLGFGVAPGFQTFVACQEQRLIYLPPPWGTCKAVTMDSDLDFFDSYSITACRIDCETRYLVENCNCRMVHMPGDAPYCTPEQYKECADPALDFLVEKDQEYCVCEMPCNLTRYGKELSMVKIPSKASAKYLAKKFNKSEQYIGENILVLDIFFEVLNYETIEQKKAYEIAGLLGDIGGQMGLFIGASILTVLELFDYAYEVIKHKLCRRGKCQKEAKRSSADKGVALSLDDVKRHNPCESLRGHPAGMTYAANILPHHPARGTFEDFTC

| Molecule | binding to cells expressing hASIC1a-eYFP [1] | binding to cells expressing mASIC1a-eYFP [2] | binding to cells expressing rASIC1a-eYFP [3] | IC50 for the inhibition of ASIC1a currents, FMP assay [4] |
| --- | --- | --- | --- | --- |
| ASC06-IgG1: parental (WT) ASIC1a-specific antagonist antibody; VL SEQ ID NO: 2, VH SEQ ID NO: 7, VH-CDR3 DSFYGYSKGD (antibody, V domains shown, IgG1 constant regions; Amino acid sequence VH of ASC06; Amino acid sequence VL of ASC06) VH: QVQLQQSGGGLVQPGGSLRLSCAASGFTFSSYAMSWVRQAPGKGLEWVSAISGSGGSTYYADSVKGRFTISRDNSKNTLYLQMNSLRAEDTAVYYCAKDSFYGYSKGDWGQGTLVTVSS VL: QSALTQPASVSGSPGQSITISCTGTSSDVGAYNYVSWYQQQPGKAPKLMIYGVSNRPSGVSNRFSGSKSGNAASLTISGLQAEDEADYYCSSYTSSSTYVFGTGTKLTVLG | bound | bound | bound |  |
| ASC06-01-IgG1: affinity-matured ASC06 derivative, VH-CDR3 DSYFGYSKGD (SEQ ID NO: 11) (antibody, V domains shown) VH: QVQLQQSGGGLVQPGGSLRLSCAASGFTFSSYAMSWVRQAPGKGLEWVSAISGSGGSTYYADSVKGRFTISRDNSKNTLYLQMNSLRAEDTAVYYCAKDSYFGYSKGDWGQGTLVTVSS VL: QSALTQPASVSGSPGQSITISCTGTSSDVGAYNYVSWYQQQPGKAPKLMIYGVSNRPSGVSNRFSGSKSGNAASLTISGLQAEDEADYYCSSYTSSSTYVFGTGTKLTVLG | bound | bound | bound |  |
| ASC06-04-IgG1 (antibody, V domains shown, Full length IgG1) VH: QVQLQQSGGGLVQPGGSLRLSCAASGFTFSSYAMSWVRQAPGKGLEWVSAISGSGGSTYYADSVKGRFTISRDNSKNTLYLQMNSLRAEDTAVYYCAKDSFYGRAKGVWGQGTLVTVSS VL: QSALTQPASVSGSPGQSITISCTGTSSDVGAYNYVSWYQQQPGKAPKLMIYGVSNRPSGVSNRFSGSKSGNAASLTISGLQAEDEADYYCSSYTSSSTYVFGTGTKLTVLG |  |  |  | 51.8 nM |
| ASC06-IgG1 (antibody, V domains shown, Tested as full length IgG1; also called WT antibody ASC06-IgG1; parental ASC06-IgG1 antibody) VH: QVQLQQSGGGLVQPGGSLRLSCAASGFTFSSYAMSWVRQAPGKGLEWVSAISGSGGSTYYADSVKGRFTISRDNSKNTLYLQMNSLRAEDTAVYYCAKDSFYGYSKGDWGQGTLVTVSS VL: QSALTQPASVSGSPGQSITISCTGTSSDVGAYNYVSWYQQQPGKAPKLMIYGVSNRPSGVSNRFSGSKSGNAASLTISGLQAEDEADYYCSSYTSSSTYVFGTGTKLTVLG |  |  |  | 251 nM |
| ASC06-02-IgG1 (antibody, V domains shown, Full length IgG1) VH: QVQLQQSGGGLVQPGGSLRLSCAASGFTFSSYAMSWVRQAPGKGLEWVSAISGSGGSTYYADSVKGRFTISRDNSKNTLYLQMNSLRAEDTAVYYCAKDSFFGRAKGSWGQGTLVTVSS VL: QSALTQPASVSGSPGQSITISCTGTSSDVGAYNYVSWYQQQPGKAPKLMIYGVSNRPSGVSNRFSGSKSGNAASLTISGLQAEDEADYYCSSYTSSSTYVFGTGTKLTVLG |  |  |  | 30.5 nM |
